For data set [1], the target named is DmC1GalT1^T43-Q388 (Drosophila melanogaster C1GalT1, residues T43-Q388) (Drosophila melanogaster). The data set can be described thus: ITC; under an excess of UDP: 2 mM (glyco)peptide titrated into DmC1GalT1^T43-Q388 (60 µM for APDT*RP and APDTRP, 50 µM for P4/P7); 20 °C; 25 mM TRIS pH 7.5, 150 mM NaCl, 1 mM UDP, 1 mM MnCl2; one-site model; duplicate. For orientation: Isothermal titration calorimetry measures the heat released or taken up as one component is titrated into another.

The target in data set [2] is Drosophila melanogaster C1GalT1, residues T43-Q388 (DmC1GalT1^T43-Q388) (Drosophila melanogaster) (UniProt Q7K237). The data set can be described thus: ITC; 2 mM glycopeptide titrated into the enzyme (60 uM for APDT*RP, 50 uM for P4/P7); excess of UDP: 25 mM TRIS pH 7.5, 150 mM NaCl, 1 mM UDP, 1 mM MnCl2; 20 °C; one-site model; duplicate.
Data set [3] has as its target DmC1GalT1^T43-Q388 (Drosophila melanogaster C1GalT1, residues T43-Q388) (Drosophila melanogaster) (UniProt Q7K237).
The target is the same in data set [4]. Description: ITC; with an excess of UDP: 2 mM (glyco)peptide titrated into 60 μM (APDT*RP, APDTRP) or 50 μM (P4/P7) enzyme; 25 mM TRIS pH 7.5, 150 mM NaCl, 1 mM UDP, 1 mM MnCl2; 20 °C; one-site model; low Wiseman c (c < 1).
The test system of data set [5] is CC(=O)N[C@H]1[C@@H](O[C@H](C)[C@H](NC(=O)[C@H](CC(=O)O)NC(=O)[C@@H]2CCCN2C(=O)[C@H](C)N)C(=O)N[C@@H](CCCNC(=N)N)C(=O)N2CCC[C@H]2C(N)=O)O[C@H](CO)[C@H](O)[C@@H]1O. The data set can be described thus: purified protein, by the assay type. Particulars: 500 µM UDP-Gal, 37.0 °C.
Data set [6] concerns CC(=O)N[C@H]1[C@@H](O[C@H](C)[C@H](NC(=O)[C@H](C)NC(=O)[C@H](C)NC(=O)[C@@H]2CCCN2)C(=O)NCC(=O)N2CCC[C@H]2C(=O)N[C@@H](Cc2ccc(O)cc2)C(N)=O)O[C@H](CO)[C@H](O)[C@@H]1O. The data set can be described thus: purified protein, by the assay type. Particulars: other: acceptor substrate varied (P1–P7 12.5–500 µM; APDT*RP/APDS*RP 12.5–1000 µM; α-O-methyl-GalNAc up to 2 mM), 500 µM UDP-Gal, 500 nM enzyme, 25 mM Tris pH 7.5, 150 mM NaCl, 50 µM MnCl2, 1 mg/ml BS, 37.0 °C.

In data set [7] the test system is CC(=O)N[C@H]1[C@@H](O[C@H](C)[C@H](NC(=O)[C@H](CC(=O)O)NC(=O)[C@H](C)NC(=O)[C@@H](N)Cc2ccc(O)cc2)C(=O)NCC(=O)N2CCC[C@H]2C(=O)N[C@@H](Cc2ccccc2)C(N)=O)O[C@H](CO)[C@H](O)[C@@H]1O. Description: purified protein, by the assay type. The conditions noted are these: other: acceptor substrate varied (P1–P7 12.5–500 µM; APDT*RP/APDS*RP 12.5–1000 µM; α-O-methyl-GalNAc up to 2 mM), 500 µM UDP-Gal, 500 nM enzyme, 25 mM Tris pH 7.5, 150 mM NaCl, 50 µM MnCl2, 1 mg/ml BS, 37.0 °C.

Setting [8] is: other: acceptor substrate varied (P1–P7 12.5–500 µM; APDT*RP/APDS*RP 12.5–1000 µM; α-O-methyl-GalNAc up to 2 mM), 500 nM enzyme, 25 mM Tris pH 7.5, 150 mM NaCl, 50 µM MnCl2, 1 mg/ml BS.

Regarding “APDT*RP glycopeptide (* = GalNAc on the Thr)”, in data set [1], the Kd is 174 µM and the stoichiometry N came to 0.88.
Substance APDT*RP glycopeptide (GalNAc on Thr) yielded a Kd in data set [2] of 173 µM.
On to “APDT*RP glycopeptide (MUC1 tandem repeat epitope with alpha-GalNAc on Thr)”, for which the Km^app of the glycopeptide as acceptor substrate (UDP-Glo glycosylation kinetics, 500 nM enzyme, 500 μM UDP-Gal) in data set [3] was found to be 195 µM. Moreover, in data set [4], the fold by which UDP binds the enzyme more strongly than this peptide stood at 9.5 fold and the stoichiometry N is 1.
In the case of “DmC1GalT1^S73-Q388 (Drosophila melanogaster)”, in data set [5] (other: construct S73-Q388 (Hi5 cells), APDT*RP varied 12.5 µM–1 mM, fit ± standard error, n = 2, pH 7.5), the Km is 322.6 µM.
With “DmC1GalT1^T43-Q388 (Drosophila melanogaster)”, the values for the Michaelis-Menten constant (Km) in data set [5] (setting [8]), in data set [6] and in data set [7] were 195 µM, 50.06 µM and 139.6 µM, respectively. Also, in data set [5] (setting [8]), the kcat worked out at 0.0583 s⁻¹.

As usually defined, the Kd is the free concentration of one partner at which half of the binding sites on the other are occupied at equilibrium, for simple one-to-one binding. Read a high Kd as weaker binding. One may read the stoichiometry N as the number of molecules, sites or subunits per partner or assembly. What is called Km is the concentration of substrate that gives half-maximal velocity. By kcat is commonly meant the number of substrate molecules converted per active site and unit of time at saturation.

Source of the values: PMC9065035, “Structural basis for the synthesis of the core 1 structure by C1GalT1” (Nature Communications, 2022).
